Data taken from PMC7800377.

Legend:
[1] = molecular target: SUN domain of human SUN1 (amino acid residues 616–812), tags removed (human); assay: SEC-MALS; SUN1-KASH4 after removal of bound zinc by treatment with EDTA
[2] = molecular target: SUN1 I673E (SUN domain of human SUN1, residues 616–812, I673E), GCN4 tag removed (human); assay: SEC-MALS; co-expressed and co-purified samples at >1 mg/ml on Superdex 200 Increase 10/300 GL in 20 mM Tris pH 8.0, 150 mM KCl, 2 mM DTT
[3] = molecular target: SUN domain of human SUN1 (amino acid residues 616–812), tags removed (human); assay: as above

Binder	stoichiometry N (binder:target ratio (6:6)) [1]	stoichiometry N (binder:target ratio (12:12)) [1]	stoichiometry N (binder:target ratio (6:6)) [2]	stoichiometry N (binder:target ratio (6:6)) [3]
ASGGPCCSHARIPRTPYLVLSYVNGLPPV (domain or fragment) [KASH domain of human Nesprin-4 (KASH4, amino acid residues 376–404), tags removed]	1	1	1	1
GPSPPPTWPHLQLCYLQPPPV (domain or fragment) [KASH domain of human KASH5 (amino acid residues 542–562), tags removed]				1
